Measurements as given in patent US20200207835A1, “SRCP1-BASED THERAPY FOR DISEASES ASSOCIATED WITH PROTEIN AGGREGATION” (THE MEDICAL COLLEGE OF WISCONSIN, INC., priority 2017, published 2020).

Legend:
^GFPHtt^ex1Q23 = target: T1, ^GFPHtt^ex1Q23 (Homo sapiens, UniProt P42858, DUP37-38); assay: GFPHttex1Q23 levels in transfected HEK293 cells (western blot); format: cell-based; settings: HEK293, 48 hours post-transfection
T1 construct: encoding pEGFP huntingtin exon-1 with 23 (^GFPHtt^ex1Q23) or 74 (^GFPHtt^ex1Q74) glutamines; host or cells: HEK293
Method: Transfections were performed with Lipofectamine 2000 (Invitrogen by ThermoFisher Scientific) and adapted from the manufacturer's instructions. Briefly, cells were plated on either 12-well or 6-well plates and transfected at 50-70% confluency. For 12-well transfections, 0.833 μg of DNA per well was mixed with 50 μl of OptiMEM (Gibco by Life Technologies) media and incubated for 5 minutes at room temperature. Lipofectamine 2000 in a 2:1, μl of lipofectamine: μg DNA ratio was mixed with 50 μl of OptiMEM media and incubated for 5 minutes at room temperature. DNA and Lipofectamine were mixed and incubated for 15 minutes at room temperature. Fresh media was added to cells prior to the addition of DNA and lipofectamine. For 6-well transfections, the same protocol is followed except that 1.25 μg of DNA per well and 100 μl of OptiMEM for dilution was used. Media was changed 24 hours post-transfection and cells were harvested 48 hours post-transfection. Prior to harvesting, HEK293 cells were washed three times with ice-cold 1×PBS. Samples were then lysed with either 150 μl of ice-cold NETN (with protease inhibitor) or 1× Laemmli Buffer and sonicated twice for 5-8 seconds.
Following sonication, lysates were subjected to BCA protein assay (ThermoFisher Scientific) and prepared for loading by the addition of 4× laemmli buffer and boiling for four minutes. […]

^GFPHtt^ex1Q74 [1] = target: T2, ^GFPHtt^ex1Q74 (Homo sapiens, UniProt P42858); assay: GFPHttex1Q74 aggregation in zebrafish spinal cord neurons; format: in vivo; set-up: encoding pEGFP huntingtin exon-1 with 23 (^GFPHtt^ex1Q23) or 74 (^GFPHtt^ex1Q74) glutamines; host or cells: zebrafish embryos injected with in vitro transcribed mRNA; spinal cord neurons imaged; settings: zebrafish embryos injected with RNA
Method: To test the effect of ^RFPSRCP1 on ^GFPHtt^ex1Q74 aggregation in zebrafish, each plasmid was used for in vitro synthesis of mRNA (mMessage mMachine T7 transcription kit, ThermoFisher Scientific). Newly fertilized embryos were injected with either 200 pg mRNA each of ^RFPSRCP1 and ^GFPHtt^ex1Q74, or RFP alone and ^GFPHtt^ex1Q74. Embryos were developed until 54 hours post fertilization, at which time live specimens were anesthetized in Tricane, embedded in 1% low-melt agarose, and subjected to confocal microscopy. Spinal cord images were taken at 100 μm×100 μm and a scan depth of 50 μm. Single image planes from 488 nm and 568 nm excitation were collected. Images were then processed for threshold analysis using ImageJ and the total number puncta were scored.

[2] = tested on: mutant (G85R or A4V) SOD1; assay: Aggregated mutant SOD1 in HEK293 cells (ultracentrifugation, western blot); format: cell-based, human; settings: HEK293, 48 hours, overexpression of SRCP1
Method: HEK293 cells were transfected with either wild-type or mutant (G85R or A4V) SOD1 either in the presence or absence of SRCP1 for 48 hours. Cells were then collected and lysed prior to ultracentrifugation to isolate aggregated proteins. After ultracentrifugation cell protein in the pellet was suspended in Laemmli buffer and analyzed by SDS-PAGE and western blot

^GFPHtt^ex1Q74 [3] = target: T2, ^GFPHtt^ex1Q74; assay: GFPHttex1Q74 puncta in iPSC-derived neurons; format: cell-based; set-up: encoding pEGFP huntingtin exon-1 with 23 (^GFPHtt^ex1Q23) or 74 (^GFPHtt^ex1Q74) glutamines; host or cells: human iPSC-derived neurons (mixed cultures with astrocytes); settings: co-expression
Method: (§1) iPSC transfections were performed with mixed cultures of astrocytes and neurons adhered to matrigel-coated coverslips, seeded at 2.6×10^4 cells/cm^2. iPSC transfections were performed using Lipofectamine 2000 according to the manufacturer's instructions and recommended DNA concentrations for a 24-well transfection.
(§2) Plated iPSC derived cultures of astrocytes and neurons were fixed with 4% paraformaldehyde in PBS for 20 minutes at room temperature, 3-5 days after transfection. Cells were permeabilized and blocked prior to antibody labeling. Nuclei were labeled with Hoechst nuclear dye. Primary antibodies used were rabbit anti-Tuj1 (Covance MRB-435P), chicken anti-Tuj1(Gene Tex, GTX85469) and mouse anti-GFAP (Cell Signaling, 3670). Images were taken using an upright Nikon fluorescent microscope with a 40× objective. The number of neural cells with GFP positive puncta was quantified using NIS Elements object quantification tool (Nikon) and neurite length was measured using NIS Elements length measurement tool (Nikon).

HEK293 cells = assay: Cell viability assay (CellTiter-Glo); format: cell-based, human; settings: HEK293 transfected with RFPSRCP1 alone
Method: HEK293 cells were transfected as described with RFP or ^RFPSRCP1. Following transfections, cells were diluted to 500,000 cells/mL with 50,000 cells plated per well in duplicate from each transfection reaction in a 96-well plate. Serial dilutions were then performed down each column of the plate down to 390 cells per well. Cells were cultured for an additional 24 hours, then lysed using the CellTiter-Glo Kit (Promega). Luminescence was quantified between 565-700 nm wavelengths on a Spark microplate reader (Tecan) to determine cell viability.

HD iPSC-derived neurons = assay: Neurite length in HD iPSC-derived neurons; format: cell-based, human; settings: HD iPSC-derived neurons with 60 or 180 glutamines, overexpression of SRCP1
Method: as §1, §2
For control iPSCs, four biological replicates from two independent differentiations were analyzed and for HD iPSCs, four biological replicates were analyzed from four separate differentiations using two independent HD lines.

T2 sequence (P42858 with tags, fused parts or gaps): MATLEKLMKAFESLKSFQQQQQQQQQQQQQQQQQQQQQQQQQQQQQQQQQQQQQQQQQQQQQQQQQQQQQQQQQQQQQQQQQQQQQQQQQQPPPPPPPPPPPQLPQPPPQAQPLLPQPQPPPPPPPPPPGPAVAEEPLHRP
T1 sequence (P42858 with tags, fused parts or gaps DUP37-38): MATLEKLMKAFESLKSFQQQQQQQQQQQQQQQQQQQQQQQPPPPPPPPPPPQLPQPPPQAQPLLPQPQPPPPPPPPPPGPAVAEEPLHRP

B1: SRCP1: Dictyostelium discoideum serine-rich chaperone protein 1 (SEQ ID NO:2), expressed in cells as RFP-tagged construct (protein)
chain: MTILSTFTSFSNPPKLNKSSFSSSTGSSLSMGSNSFAWGGGWGGFGGPKGGSFNVDIAGNLIWGVYGFIRGGVGLVKWRGLQKGCKQP
modifications: RFP tag; Dictyostelium discoideum AX4
levels of GFPHttex1Q23 (^GFPHtt^ex1Q23): did not alter the levels of | GFPHttex1Q74 puncta in spinal cord neurons (^GFPHtt^ex1Q74 [1]): significant reduction of ^GFPHtt^ex1Q74 puncta | levels of aggregated mutant SOD1 [2]: reduces the levels of aggregated mutant SOD1 | GFPHttex1Q74 puncta (^GFPHtt^ex1Q74 [3]): dramatic decrease in ^GFPHtt^ex1Q74 puncta | toxicity (viability by CellTiter-Glo) (HEK293 cells): did not display any toxicity | neurite length (HD iPSC-derived neurons): significantly increased neurite length
